According to the supplement of paper PMC12042874:
± gives the uncertainty stated by the source.

Assay: amyloid nucleation score (Sup35N fusion, yeast selection) (log enrichment); library NNK3; higher = more nucleation; inactive = no reads after selection
Method in brief: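 Using DiMSum, nucleation scores were taken as the log enrichment of output over input reads, centred on the mode score of non-aggregating sequences. The input and output reads came from Illumina sequencing of plasmid inserts, with sequences under 100 input reads excluded. The yeast were psi-negative, expressed Sup35N fused to peptides of 20 random codons, were induced with 100 μM copper sulfate for 24 hours, and were grown 7 days at 30°C on medium lacking adenine and uracil.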

KMQISTKVCDMDLFCPKTIP
amyloid nucleation score: inactive

FYLIRKTIFLGSISLVWYGV
amyloid nucleation score: inactive

YGNHFSNNDGSIFER
amyloid nucleation score: inactive

RRSCCLVLTIRVFCRICRDE
amyloid nucleation score: inactive

VHSGQLVTMGMYKLLLSSLC
amyloid nucleation score: inactive

CYIVGVVGLSTDWFMSGHSD
amyloid nucleation score: 0.035 ± 0.9

EVLYR
amyloid nucleation score: inactive

GIVALCRTCDNRRMRVSVGV
amyloid nucleation score: inactive

TYLNTVRLKSGMMMNMKSTR
amyloid nucleation score: inactive

ELRTNYRKLLSSQAEVGCMV
amyloid nucleation score: inactive

HDMVREVDPILFMTLFRGGF
amyloid nucleation score: -0.517 ± 1.2

IIPYHEFIVGALVSHRWCQD
amyloid nucleation score: inactive

SMNFSSWWRLCCDEGSGSYT
amyloid nucleation score: 0.671 ± 0.19

ENPVSCKAIYYTVSIITSFS
amyloid nucleation score: inactive

YAYVQRVYLACSINLMCLWY
amyloid nucleation score: inactive

YRFGDILSVRSLQNFT
amyloid nucleation score: inactive

GTGRSECNCMQGTHGLGICS
amyloid nucleation score: -0.184 ± 1.5

QMCVVPTTY
amyloid nucleation score: inactive

PDAVTILGGVYHVVQSWG
amyloid nucleation score: inactive

RQHFRYHGIFAEFGSTFVRS
amyloid nucleation score: inactive

CNVTLSSTYEK
amyloid nucleation score: inactive

VRLFRVLWRIIPDGVSMKSV
amyloid nucleation score: inactive

GKINLVTCFVCLSTPFKHSL
amyloid nucleation score: 1.74 ± 0.067

FDFESRKLVVGICGCSQAGL
amyloid nucleation score: inactive

KDQSRSARSST
amyloid nucleation score: inactive

TFSGVCIVIAYCGVFNILEG
amyloid nucleation score: 1.94 ± 0.097

ESSRRYEVCCLMW
amyloid nucleation score: inactive

TLHVCIVLSPGRW
amyloid nucleation score: inactive

FLWMSAEGLSK
amyloid nucleation score: inactive

INLNYDLKFGYVYHMLFT
amyloid nucleation score: inactive

YSLLSSMPLIRRRLGLYESW
amyloid nucleation score: inactive

VKNTGLSSNHLEH
amyloid nucleation score: 1.11 ± 0.13

LTGFIGICQLVSYFNEVALQ
amyloid nucleation score: inactive

VAVLVNALSLPEVGKGVVRR
amyloid nucleation score: 1.84 ± 0.083

VMIDRWRNASNWIMFISHYR
amyloid nucleation score: -0.611 ± 0.98

NSSSNE
amyloid nucleation score: 1.01 ± 0.22

WTRCRLTDFYHSGMSYHHSG
amyloid nucleation score: inactive

SNTYCVPYRKGEELVYCGSW
amyloid nucleation score: inactive

MYSHRRGRKLRLLESFYNLS
amyloid nucleation score: inactive

SYCLYKLQLLWHDNHGFGYN
amyloid nucleation score: inactive

CQVGRKRLLYVFTGYK
amyloid nucleation score: inactive

KPDVY
amyloid nucleation score: inactive

YLFHSEGHWRDPHSLPSYLT
amyloid nucleation score: inactive

RDGNRVQMVSIPIQVSAMLG
amyloid nucleation score: inactive

SNFGTNSIYMCTAMIPM
amyloid nucleation score: inactive

HHIMIATLSG
amyloid nucleation score: 0.711 ± 0.12

LILCRCCSGVYRTRVMKLLL
amyloid nucleation score: inactive

LCRFNLYYWLVFELACSRWN
amyloid nucleation score: inactive

YFFTHDFHVVLNFANCIWYL
amyloid nucleation score: 2.99 ± 0.069

RPFNHVDISYAKPLDNFWM
amyloid nucleation score: -0.582 ± 0.98

EGRFLKLFWSGSL
amyloid nucleation score: -0.108 ± 0.51

MIVSSYFYLVRIQYEFHAGW
amyloid nucleation score: 0.172 ± 0.43

VSIFCCQPSSVIAVDISDHS
amyloid nucleation score: 2.93 ± 0.068

RVNHGGNLTRAKHERLFHLK
amyloid nucleation score: inactive

PVECLDNDQGFLWPEVRVRG
amyloid nucleation score: inactive

LFSEFQ
amyloid nucleation score: 0.574 ± 0.32

LFLYLCTVYNDFKELQPRNL
amyloid nucleation score: 2.67 ± 0.07

ITLLCLFNATL
amyloid nucleation score: 1.98 ± 0.085

RILRVRF
amyloid nucleation score: inactive

PYESHDEGQGNATM
amyloid nucleation score: inactive

SPRLYETRMLPLTMGCGGDD
amyloid nucleation score: inactive

ANPLAYLQSMSGTSGNT
amyloid nucleation score: inactive

FLRFWARSNPGTWLIVHGMG
amyloid nucleation score: -0.69 ± 1.4

NAGYSNRCQIGYICSVRACK
amyloid nucleation score: inactive

VTRMLFVHCGTSVNVNS
amyloid nucleation score: inactive

DQEVC
amyloid nucleation score: inactive

YYLVSHWWFGQCFDHVVS
amyloid nucleation score: inactive

VYNTGFLGPVSFSAGKFLML
amyloid nucleation score: 0.943 ± 0.13

CGCYSLMFFSMTCNEKLLSL
amyloid nucleation score: inactive

FCRIAVMFKSNQELYRMDNG
amyloid nucleation score: inactive

HVGLRAKLTFLDRVYLSILS
amyloid nucleation score: inactive

LRGGKFNQYWIGRHGLSSVS
amyloid nucleation score: -0.562 ± 1.1

GHKVSSIDNHFPILSSEAFK
amyloid nucleation score: inactive

NIGWSVCERL
amyloid nucleation score: inactive

QSLLSVGEWNAQHMSLSSGR
amyloid nucleation score: inactive

HCCFVWERRNACGMVSSWMT
amyloid nucleation score: inactive

PMERGMCLMLGSLVG
amyloid nucleation score: 0.942 ± 0.093

DCYKRSVMLKAARSWVNRSL
amyloid nucleation score: inactive

YFYFDFNYNMYGVKALLVLC
amyloid nucleation score: inactive

FIIISIYGCIIVRWTKRAWG
amyloid nucleation score: inactive

YDCFFTEIAVVVNIE
amyloid nucleation score: inactive

WAFGYFGCYFQFLVLQDSVG
amyloid nucleation score: 1.87 ± 0.1

IQLKDKNGDL
amyloid nucleation score: inactive

ISEVESWPFHCGYGNI
amyloid nucleation score: 0.467 ± 0.28

SNYVKKQIALS
amyloid nucleation score: inactive

YSSSRLI
amyloid nucleation score: inactive

SFGMCTMYFYLNVCMAKGAR
amyloid nucleation score: inactive

ALLTAYDRKNTNGYAGVRWN
amyloid nucleation score: inactive

TNYNHCKCEIGLGHILARFT
amyloid nucleation score: inactive

VVRIGSRACGLRRKVCGGFG
amyloid nucleation score: inactive

MIRLSDTRRWIVYFHQCLCG
amyloid nucleation score: -0.748 ± 1

LLTFSMVDKFLSDNSYLNGI
amyloid nucleation score: inactive

MAVID
amyloid nucleation score: inactive

TTMWTIKENFTWIVITVDSI
amyloid nucleation score: inactive

VGMISCKTILEFGGMSSFVM
amyloid nucleation score: inactive

CFPASCIQ
amyloid nucleation score: inactive

MFINECVSVYDQF
amyloid nucleation score: inactive

WRRMTEPMSAKGLTNYLEST
amyloid nucleation score: inactive

KDCQKNGWLSSTNLELLQCP
amyloid nucleation score: inactive

DSQLFKICGLVCTTYVALCF
amyloid nucleation score: -0.732 ± 0.59

CLTIHWTVFSGAARLSFIMT
amyloid nucleation score: inactive

RSRLAGFSNYFCMKCVIAAG
amyloid nucleation score: inactive

CAYDINYLCSREWVSNSCWG
amyloid nucleation score: inactive

FTSKKLLCLDKPFNIGDCGY
amyloid nucleation score: inactive

GLPNGGDPCLREVGSHLVTH
amyloid nucleation score: -0.347 ± 1.4

TYYLSMN
amyloid nucleation score: inactive

NGPEGSLFDLSDFCHFCLNR
amyloid nucleation score: 0.955 ± 0.14

WDMENFLD
amyloid nucleation score: inactive

WGWRA
amyloid nucleation score: -0.215 ± 0.57

GGSIVVCLRHHRDLSMHSWD
amyloid nucleation score: inactive

LFLRPNANRYVH
amyloid nucleation score: inactive

RYPLSDDPLGIVWITYMLAN
amyloid nucleation score: inactive

DLTDNVFYWSRNTIDEVRVR
amyloid nucleation score: inactive

RVMCRFIVRSLYAPDSHSLT
amyloid nucleation score: 1.54 ± 0.073

VTSIPIPR
amyloid nucleation score: inactive

HMLHVWYFLGRQYANTFCYM
amyloid nucleation score: inactive

SLGNITVPAT
amyloid nucleation score: inactive

LNLWD
amyloid nucleation score: inactive

SGVKFSYNWQR
amyloid nucleation score: inactive

HPSQIKKVAFHYVRICSKWL
amyloid nucleation score: inactive

SLSILT
amyloid nucleation score: inactive

NHKEWWFTVYLTSGVVCDLG
amyloid nucleation score: inactive

MKVIRTYRGYGCQDWIELLF
amyloid nucleation score: inactive

SYGSLM
amyloid nucleation score: 0.198 ± 0.27

DHLSVWVSRLDTINCLREVG
amyloid nucleation score: inactive

DLIGYSEEV
amyloid nucleation score: 0.449 ± 0.19

HNSCGGY
amyloid nucleation score: inactive

SFYWMHMSAMIEYDPFTYGA
amyloid nucleation score: inactive

RRWGFCTLVIVCRAGCYVLS
amyloid nucleation score: inactive

INNASRRPCNMHVDVYRLLR
amyloid nucleation score: inactive

WFCNYRIMYKVSSIAPMLNP
amyloid nucleation score: inactive

FWFFYNICRMLKSVT
amyloid nucleation score: inactive

ILQKSDVSII
amyloid nucleation score: inactive

SWTSEGDWHYFGYIEVVWHY
amyloid nucleation score: inactive

GFSHANGHGTEKDFSSLIPV
amyloid nucleation score: inactive

MLLFACQRLQLVALLGARML
amyloid nucleation score: inactive

NLMRSILWVEYVQDCNCCSG
amyloid nucleation score: 2.54 ± 0.07

GSFITSNA
amyloid nucleation score: inactive

SFICVSSDLCARARVGDSSR
amyloid nucleation score: inactive

NFWNWLHNPWAPM
amyloid nucleation score: inactive

FMISDNMAQCMERGYRAEVF
amyloid nucleation score: inactive

EVGCV
amyloid nucleation score: 0.76 ± 0.14

RYSVARIRCTTGNVDVYV
amyloid nucleation score: -0.281 ± 1.2

TLSELLR
amyloid nucleation score: inactive

LRGFKEVTTRLKVRLQLGM
amyloid nucleation score: -0.731 ± 1.3

SRPFICSPFQIWAFKFTPMN
amyloid nucleation score: inactive

LWLGWNRKWQFSWPAAGRFL
amyloid nucleation score: inactive

NTSDPSNRFLPFLYVRLHSS
amyloid nucleation score: inactive

CMGYRFC
amyloid nucleation score: inactive

VLAMCVYSACMWFGNNAMLH
amyloid nucleation score: inactive

MSNGIVYNELFSVVRWS
amyloid nucleation score: 1.67 ± 0.071

SLVGRSCLRY
amyloid nucleation score: inactive

LLIRVLYLWSLESISNG
amyloid nucleation score: inactive

RKLSNIYFVIGDGMWGSHGW
amyloid nucleation score: 2.32 ± 0.06

SSHVQRMMRLMVAN
amyloid nucleation score: inactive

KSAREFGAHFMSTITVACTR
amyloid nucleation score: inactive

NLTVGSTILIPC
amyloid nucleation score: inactive

MFVDSSISGIEIR
amyloid nucleation score: inactive

FDLGGLLPL
amyloid nucleation score: inactive

NGHWL
amyloid nucleation score: inactive
